Results reported in paper PMC6727763 (Molecular Biology of the Cell, 2019).

Molecular target: T1, αE-catenin construct containing the M123 domain (UniProt P26231 1-906)
T1 sequence (looked up): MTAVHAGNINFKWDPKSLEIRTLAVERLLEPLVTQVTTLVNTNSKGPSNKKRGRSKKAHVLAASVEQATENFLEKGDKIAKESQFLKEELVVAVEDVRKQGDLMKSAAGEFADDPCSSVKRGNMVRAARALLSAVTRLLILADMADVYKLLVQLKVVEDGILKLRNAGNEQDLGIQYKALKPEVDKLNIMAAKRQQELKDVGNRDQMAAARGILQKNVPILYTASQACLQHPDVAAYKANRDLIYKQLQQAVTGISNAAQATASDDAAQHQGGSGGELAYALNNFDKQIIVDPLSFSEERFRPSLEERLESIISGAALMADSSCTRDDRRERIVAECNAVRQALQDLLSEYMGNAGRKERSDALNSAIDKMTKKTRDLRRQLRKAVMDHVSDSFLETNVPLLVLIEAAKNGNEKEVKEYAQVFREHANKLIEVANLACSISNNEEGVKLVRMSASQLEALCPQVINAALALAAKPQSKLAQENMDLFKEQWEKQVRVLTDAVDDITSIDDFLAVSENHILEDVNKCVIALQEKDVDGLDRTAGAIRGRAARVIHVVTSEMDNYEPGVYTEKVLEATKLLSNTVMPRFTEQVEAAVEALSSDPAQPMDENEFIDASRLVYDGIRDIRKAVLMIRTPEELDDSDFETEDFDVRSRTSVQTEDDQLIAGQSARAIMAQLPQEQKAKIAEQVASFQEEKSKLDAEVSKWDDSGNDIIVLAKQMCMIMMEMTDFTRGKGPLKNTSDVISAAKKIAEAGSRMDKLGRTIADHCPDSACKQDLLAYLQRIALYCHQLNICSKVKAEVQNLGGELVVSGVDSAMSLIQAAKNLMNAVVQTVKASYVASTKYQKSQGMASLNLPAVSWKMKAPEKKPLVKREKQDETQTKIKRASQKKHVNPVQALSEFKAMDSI
Experiment: magnetic tweezers force-jumping assay

B1: vinculin head domain 1 (VD1) (domain or fragment)
chain: MPVFHTRTIESILEPVAQQISHLVIMHEEGEVDGKAIPDLTAPVSAVQAAVSNLVRVGKETVQTTEDQILKRDMPPAFIKVENACTKLVRAAQMLQADPYSVPARDYLIDGSRGILSGTSDLLLTFDEAEVRKIIRVCKGILEYLTVAEVVETMEDLVTYTKNLGPGMTKMAKMIDERQQELTHQEHRVMLVNSMNTVKELLPVLISAMKIFVTTKNTKSQGIEEALKNRNFTVEKMSAEINEIIRVLQLTSWDEDAW
Kd: 2 nM
koff: 0.008 s⁻¹
kon: 4.8e+06 M⁻¹ s⁻¹
